Assay results: patent US20230241243A1, “CARRIER PARTICLE-DRUG CONJUGATES, SELF-IMMOLATIVE LINKERS, AND USES THEREOF” (priority 2020, published 2023)

Assay: Drug-release assay of nanoparticle-conjugated linker-payloads under cleavage conditions (Cat-B, redox-responsive or pH-sensitive cleaving study), RP-HPLC
Type: in vitro ADME
Settings: linker-payload conjugated to DBCO-functionalized silica nanoparticle, 37° C., 24 hours
Experimental: To assess the drug releasing profile of exemplary linker-drug conjugates, the linker-drug conjugates were each conjugated to a DBCO-functionalized ultrasmall silica nanoparticle via a click chemistry reaction between the azide groups on the linker-drug conjugate precursors and the dibenzocyclooctyne (DBCO) groups of the nanoparticles. The resulting drug-nanoparticle-conjugates were then incubated under the desired releasing conditions for release kinetics tests.
The amount of released drugs vs non-released drugs was measured using reverse phase HPLC by analyzing the area under curve (AUC) (FIG. 10A and FIG. 10B).
General Method: A Waters Xbridge Peptide BEH C18 column with 4.6 mm×50 mm dimensions, a particle size of 5 μm, and a pore size of 300 A was used (part number 186003622). Acetonitrile (VWR HiPerSolv Chromanorm, UHPLC Grade) was used as received without further preparation, […] trifluoroacetic acid in deionized water was prepared by adding 1 mL of trifluoroacetic acid (HPLC grade, Millipore-Sigma) into 999 mL 18.2 MΩ·cm deionized water that was generated using an IQ7000 Millipore deionized water system and passed through a 0.2 μm filter before use. The seal wash used for the system was composed of 90% 18.2 MΩ·cm deionized water and 10% methanol (HPLC grade, VWR). The injection needle was washed using a mixture of 25 vol % 18.2 MΩ·cm deionized water, 25 vol % acetonitrile, 25 vol % methanol, and 25 vol % 2-propanol. Samples were prepared in a concentration range of 0.25 to 2 μM and the injection volume ranges from 60 μL to 10 μL, respectively. Higher sample concentration can be used if detector signal is low. Vials used for all injections are fresh Waters Total Recovery vials with screw caps that have pre-slit PTFE septa (part number 186000385C).
Method for Protease-cleavable and Redox-responsive Linkers: Before any sample injections were started, the PDA lamp was turned on and allowed to warm up for at least 30 minutes. The system and column were equilibrated with 95% 0.01% TFA in deionized water, 5% acetonitrile for at least 10 minutes at a flow rate of 1.0 mL/min after the PDA lamp had warmed up. Two blank injections, with injection volumes of 10 μL containing only 18.2 MΩ·cm deionized water, were performed before the injection of any samples for analysis. The gradient used to elute protease-cleavable and redox-sensitive linkers conjugated to hybrid silica nanoparticles, and their components began at 95% 0.01% TFA in deionized water and 5% acetonitrile and linearly changed to 15% 0.01% TFA in deionized water, 85% acetonitrile over 8 minutes. Acetonitrile composition was increased to 95% over an additional minute and held at 95% for an additional 2 minutes to ensure that any strongly retained compounds are eluted. The composition of the solvent was then changed back to the starting composition of the gradient over an additional minute and allowed to equilibrate for 3 minutes before another injection began. Between sample injections a blank injection was run to ensure that no carryover occurred.
Method for pH-sensitive Linkers: Before any sample injections were started, the PDA lamp was turned on and allowed to warm up for at least 30 minutes. A gradient of pure deionized water and acetonitrile was used, all other consumables including column and vials were the same as for the method to purify Cat-B sensitive and redox-responsive linkers elaborated on above. Briefly the gradient composition began at 95% deionized water and 5% acetonitrile at a flow rate of 1.0 mL/min (not changed throughout the method). The composition was changed from this starting composition to 15% deionized water and 85% acetonitrile over a 12-minute period, during which the retained drug-linkers, released drug, free drug linker, and any other impurities eluted. At the 12-minute mark the composition was rapidly changed to 5% deionized water and 95% acetonitrile over the course of one minute. […]
In the case of CC[C@@]1(O)C(=O)OCc2c1cc1n(c2=O)Cc2c-1nc1cc(F)c(C)c3c1c2[C@@H](NC(=O)C(=O)c1ccc(NC(=O)[C@H](CCCNC(N)=O)NC(=O)[C@@H](NC(=O)CCOCCOCCOCCOCCOCCOCCN=[N+]=[N-])C(C)C)cc1)CC3 [Example 24, 1-azido-N-((S)-1-(((S)-1-((4-(2-(((1S,9S)-9-ethyl-5-fluoro-9-hydroxy-4-methyl-10,13-dioxo-2,3,9,10,13,15-hexahydro-1H,12H-benzo[de]pyrano[3′,4′:6,7]indolizino[1,2-b]quinolin-1-yl)amino)-2-oxoacetyl)phenyl)amino)-1-oxo-5-ureidopentan-2-yl)amino)-3-methyl-1-oxobutan-2-yl)-3,6,9,12,15,18-hexaoxahenicosan-21-amide], the “% of Payload Release in 24 Hours Under Cleavage Conditions” value (from here on “% of Payload Release”) is reported as “+ (‘+’ indicates 5-25% release)”.
In the case of CCc1c2c(nc3ccc(OCCCSSC(C)(C)CNC(=O)CCOCCOCCOCCOCCOCCOCCOCCOCCOCCN=[N+]=[N-])cc13)-c1cc3c(c(=O)n1C2)COC(=O)[C@]3(O)CC [Example 55, (S)-1-Azido-N-(2-((3-((4,11-diethyl-4-hydroxy-3,14-dioxo-3,4,12,14-tetrahydro-1H-pyrano[3′,4′:6,7]indolizino[1,2-b]quinolin-9-yl)oxy)propyl)disulfanyl)-2-methylpropyl)-3,6,9,12,15,18,21,24,27-nonaoxatriacontan-30-amide], the “% of Payload Release” value is reported as “+ (‘+’ indicates 5-25% release)”.
In the case of CCc1c2c(nc3ccc(OCCCSSC(C)(C)CNC(=O)CCOCCOCCOCCOCCOCCOCCOCCOCCOCCOCCOCCN=[N+]=[N-])cc13)-c1cc3c(c(=O)n1C2)COC(=O)[C@]3(O)CC [Example 56, (S)-1-azido-N-(2-((3-((4,11-diethyl-4-hydroxy-3,14-dioxo-3,4,12,14-tetrahydro-1H-pyrano[3′,4′:6,7]indolizino[1,2-b]quinolin-9-yl)oxy)propyl)disulfanyl)-2-methylpropyl)-3,6,9,12,15,18,21,24,27,30,33-undecaoxahexatriacontan-36-amide], the “% of Payload Release” value is reported as “+ (‘+’ indicates 5-25% release)”.
For CCc1c2c(nc3ccc(OCCCNC(=O)OCc4ccc(SSC(C)(C)CNC(=O)CCOCCOCCOCCOCCOCCOCCOCCOCCOCCN=[N+]=[N-])cc4)cc13)-c1cc3c(c(=O)n1C2)COC(=O)[C@]3(O)CC [Example 59, 4-((1-azido-33-methyl-30-oxo-3,6,9,12,15,18,21,24,27-nonaoxa-31-azatetratriacontan-33-yl)disulfanyl)benzyl (S)-(3-((4,11-diethyl-4-hydroxy-3,14-dioxo-3,4,12,14-tetrahydro-1H-pyrano[3′,4′:6,7]indolizino[1,2-b]quinolin-9-yl)oxy)propyl)carbamate], the “% of Payload Release” value was “+++ (‘+++’ indicates 51-75% release)”.
With CCc1c2c(nc3ccc(OC(C(=O)N(C)C)c4ccc(NC(=O)[C@H](CCCNC(N)=O)NC(=O)[C@@H](NC(=O)CCOCCOCCOCCOCCOCCOCCOCCOCCOCCOCCOCCN=[N+]=[N-])C(C)C)cc4)cc13)-c1cc3c(c(=O)n1C2)COC(=O)[C@]3(O)CC (stereo partly drawn) [Example 20, 1-azido-N-((2S)-1-(((2S)-1-((4-(1-(((s)-4,11-diethyl-4-hydroxy-3,14-dioxo-3,4,12,14-tetrahydro-1H-pyrano[3′,4′:6,7]indolizino[1,2-b]quinolin-9-yl)oxy)-2-(dimethylamino)-2-oxoethyl)phenyl)amino)-1-oxo-5-ureidopentan-2-yl)amino)-3-methyl-1-oxobutan-2-yl)-3,6,9,12,15,18,21,24,27,30,33-undecaoxahexatriacontan-36-amide] the “% of Payload Release” value was “+ (‘+’ indicates 5-25% release)”.
For CC[C@@]1(O)C(=O)OCc2c1cc1n(c2=O)Cc2c-1nc1cc(F)c(C)c3c1c2[C@@H](NC(=O)OCc1ccc(NC(=O)[C@H](CCCNC(N)=O)NC(=O)[C@@H](NC(=O)CCCCCCN=[N+]=[N-])C(C)C)cc1)CC3 [Example 30, 4-((S)-2-((S)-2-(7-Azidoheptanamido)-3-methylbutanamido)-5-ureidopentanamido)benzyl ((1S,9S)-9-ethyl-5-fluoro-9-hydroxy-4-methyl-10,13-dioxo-2,3,9,10,13,15-hexahydro-1H,12H-benzo[de]pyrano[3′,4′:6,7]indolizino[1,2-b]quinolin-1-yl)carbamate], the “% of Payload Release” value was “++ (‘++’ indicates 26-50% release)”.
In the case of CCc1c2c(nc3ccc(OC(C(=O)OC)c4ccc(NC(=O)[C@H](CCCNC(N)=O)NC(=O)[C@@H](NC(=O)CCOCCOCCOCCOCCOCCOCCOCCOCCOCCN=[N+]=[N-])C(C)C)cc4)cc13)-c1cc3c(c(=O)n1C2)COC(=O)[C@]3(O)CC (stereo partly drawn) [Example 13-R isomer, Methyl 2-(4-((32S,35S)-1-azido-32-isopropyl-30,33-dioxo-35-(3-ureidopropyl)-3,6,9,12,15,18,21,24,27-nonaoxa-31,34-diazahexatriacontan-36-amido)phenyl)-2-(((S)-4,11-diethyl-4-hydroxy-3,14-dioxo-3,4,12,14-tetrahydro-1H-pyrano[3′,4′:6,7]indolizino[1,2-b]quinolin-9-yl)oxy)acetate], the “% of Payload Release” value is reported as “+ (‘+’ indicates 5-25% release)”.
For CC[C@@]1(O)C(=O)OCc2c1cc1n(c2=O)Cc2c-1nc1cc(F)c(C)c3c1c2[C@@H](NC(=O)C(O)c1ccc(NC(=O)[C@H](CCCCN)NC(=O)[C@H](Cc2ccccc2)NC(=O)CCOCCOCCOCCOCCOCCOCCN=[N+]=[N-])cc1)CC3 (single isomer, unassigned) [Example 29-Peak 2], the “% of Payload Release” value was “++ (‘++’ indicates 26-50% release)”.
In the case of CCc1c2c(nc3ccc(OCCCNC(=O)OCc4ccc(NC(=O)[C@H](CCCNC(N)=O)NC(=O)[C@@H](NC(=O)CCOCCOCCOCCOCCOCCOCCOCCOCCOCCOCCOCCN=[N+]=[N-])C(C)C)cc4)cc13)-c1cc3c(c(=O)n1C2)COC(=O)[C@]3(O)CC [Example 17, 4-((38S,41S)-1-azido-38-isopropyl-36,39-dioxo-41-(3-ureidopropyl)-3,6,9,12,15,18,21,24,27,30,33-undecaoxa-37,40-diazadotetracontan-42-amido)benzyl (3-(((S)-4,11-diethyl-4-hydroxy-3,14-dioxo-3,4,12,14-tetrahydro-1H-pyrano[3′,4′:6,7]indolizino[1,2-b]quinolin-9-yl)oxy)propyl)carbamate], the “% of Payload Release” value is reported as “++ (‘++’ indicates 26-50% release)”.
With CCc1c2c(nc3ccc(OCc4c(F)cc(NC(=O)[C@H](CCCNC(N)=O)NC(=O)[C@@H](NC(=O)CCOCCOCCOCCOCCOCCOCCOCCOCCOCCOCCOCCN=[N+]=[N-])C(C)C)cc4F)cc13)-c1cc3c(c(=O)n1C2)COC(=O)[C@]3(O)CC [Example 22, 1-azido-N-((S)-1-(((S)-1-((4-((((S)-4,11-diethyl-4-hydroxy-3,14-dioxo-3,4,12,14-tetrahydro-1H-pyrano[3′,4′:6,7]indolizino[1,2-b]quinolin-9-yl)oxy)methyl)-3,5-difluorophenyl)amino)-1-oxo-5-ureidopentan-2-yl)amino)-3-methyl-1-oxobutan-2-yl)-3,6,9,12,15,18,21,24,27,30,33-undecaoxahexatriacontan-36-amide] the “% of Payload Release” value was “+ (‘+’ indicates 5-25% release)”.
For CC[C@@]1(O)C(=O)OCc2c1cc1n(c2=O)Cc2c-1nc1cc(F)c(C)c3c1c2[C@@H](NC(=O)C(O)c1ccc(NC(=O)[C@H](CCCCN)NC(=O)[C@H](Cc2ccccc2)NC(=O)CCOCCOCCOCCOCCOCCOCCN=[N+]=[N-])cc1)CC3 (single isomer, unassigned) [Example 29-Peak 1], the “% of Payload Release” value was “+++ (‘+++’ indicates 51-75% release)”.
